One sequence from paper PMC12412624, “Engineered Cas12j‐8 is a Versatile Platform for Multiplexed Genome Modulation in Mammalian Cells” can be followed below.

For data set [1], the system named is T1, dCas12j-8 E157R E157R;D369A;E567A;D658A (bacteriophage (metagenome)).
T1 sequence: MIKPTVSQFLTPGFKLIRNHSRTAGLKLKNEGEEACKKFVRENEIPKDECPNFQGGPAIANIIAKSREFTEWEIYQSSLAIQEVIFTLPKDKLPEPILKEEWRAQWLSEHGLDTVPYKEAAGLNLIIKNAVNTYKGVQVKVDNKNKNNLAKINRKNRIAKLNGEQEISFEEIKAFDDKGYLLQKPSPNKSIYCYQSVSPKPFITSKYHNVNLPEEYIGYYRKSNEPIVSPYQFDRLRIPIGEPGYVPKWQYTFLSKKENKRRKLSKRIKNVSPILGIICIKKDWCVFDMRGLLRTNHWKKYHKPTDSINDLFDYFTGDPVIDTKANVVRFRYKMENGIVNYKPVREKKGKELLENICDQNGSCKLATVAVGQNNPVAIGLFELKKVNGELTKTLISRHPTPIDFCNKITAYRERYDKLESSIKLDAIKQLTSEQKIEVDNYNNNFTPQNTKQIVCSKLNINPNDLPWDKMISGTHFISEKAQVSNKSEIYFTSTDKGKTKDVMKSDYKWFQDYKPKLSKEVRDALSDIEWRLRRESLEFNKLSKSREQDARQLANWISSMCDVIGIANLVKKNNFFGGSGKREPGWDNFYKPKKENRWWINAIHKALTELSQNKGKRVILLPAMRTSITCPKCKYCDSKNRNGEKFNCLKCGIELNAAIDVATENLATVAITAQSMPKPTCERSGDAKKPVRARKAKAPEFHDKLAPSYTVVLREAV
The conditions noted are these: HEK293T cells; panel 1c (compare within a panel only); scale: mean GFP / mean GFP of wild type, printed, no background subtraction.

Data set [2] relates to T2, dCas12j-8 E258R+D313R+D495R E258R;D313R;D495R;D369A;E567A;D658A (bacteriophage (metagenome)).
T2 sequence: T1 sequence with R157E, E258R, D313R, D495R
The conditions noted are these: HEK293T cells; panel 1e (compare within a panel only); scale: mean GFP / mean GFP of wild type, printed, no background subtraction.

Data set [3] deals with T3, dCas12j-8 E258R+D523R E258R;D523R;D369A;E567A;D658A (bacteriophage (metagenome)).
T3 sequence: T1 sequence with R157E, E258R, D523R
The following applies: HEK293T cells; panel 1d (compare within a panel only); scale: mean GFP / mean GFP of wild type, printed, no background subtraction.

Numbering of substitutions follows the chain as printed.

With “CUUUCAAGACUAAUAGAUUGCUCCUUACGAGGAGACACUCCCUAUCAGUGAUAGAG / TTNACTCCCTATCAGTGATAGAG / CTCTATCACTGATAGGGAGTNAA [TetO]”, the binding signal came out at 1.39 in data set [1], 4.66 in data set [2] and 2.67 in data set [3].
